# US20230078265A1, “METHODS AND COMPOSITIONS FOR EDITING NUCLEOTIDE SEQUENCES” (The Broad Institute, Inc., priority 2019, published 2023)
# B1: 175-307 deletion: SpCas9 mutation relative to SEQ ID NO: 18 (protein)
# chain: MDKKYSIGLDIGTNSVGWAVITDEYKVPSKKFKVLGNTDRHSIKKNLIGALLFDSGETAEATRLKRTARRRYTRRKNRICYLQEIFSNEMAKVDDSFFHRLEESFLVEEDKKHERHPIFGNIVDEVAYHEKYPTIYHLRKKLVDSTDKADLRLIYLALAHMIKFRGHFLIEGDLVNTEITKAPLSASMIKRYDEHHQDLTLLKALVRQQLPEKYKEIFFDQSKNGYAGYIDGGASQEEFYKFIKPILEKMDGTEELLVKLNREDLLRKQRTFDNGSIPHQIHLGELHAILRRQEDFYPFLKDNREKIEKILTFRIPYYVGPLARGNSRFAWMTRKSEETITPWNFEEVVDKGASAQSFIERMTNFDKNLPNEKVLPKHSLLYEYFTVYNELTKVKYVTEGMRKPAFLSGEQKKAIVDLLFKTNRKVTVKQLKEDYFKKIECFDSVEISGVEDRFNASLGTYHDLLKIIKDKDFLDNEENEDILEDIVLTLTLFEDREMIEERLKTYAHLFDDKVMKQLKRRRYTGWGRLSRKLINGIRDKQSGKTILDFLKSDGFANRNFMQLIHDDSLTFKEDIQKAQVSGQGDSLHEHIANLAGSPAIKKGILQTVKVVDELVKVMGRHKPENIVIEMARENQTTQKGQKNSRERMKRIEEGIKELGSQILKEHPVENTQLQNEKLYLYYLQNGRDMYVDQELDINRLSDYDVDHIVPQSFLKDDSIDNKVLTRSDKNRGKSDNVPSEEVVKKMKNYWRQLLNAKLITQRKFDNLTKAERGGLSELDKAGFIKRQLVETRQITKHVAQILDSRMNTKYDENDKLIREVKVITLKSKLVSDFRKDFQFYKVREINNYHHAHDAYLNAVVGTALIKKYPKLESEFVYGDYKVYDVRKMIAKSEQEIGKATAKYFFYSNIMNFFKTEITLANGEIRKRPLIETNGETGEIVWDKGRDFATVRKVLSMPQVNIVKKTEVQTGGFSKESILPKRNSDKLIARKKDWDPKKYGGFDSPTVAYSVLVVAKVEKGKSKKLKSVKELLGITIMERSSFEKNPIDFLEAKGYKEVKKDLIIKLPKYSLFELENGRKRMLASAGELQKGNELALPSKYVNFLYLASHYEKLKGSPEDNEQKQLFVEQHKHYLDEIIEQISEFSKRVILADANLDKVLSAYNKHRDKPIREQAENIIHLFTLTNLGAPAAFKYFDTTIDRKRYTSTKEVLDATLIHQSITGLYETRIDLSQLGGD
# modifications: Streptococcus pyogenes
# B2: 1024-CFN: intein-split PE with extein residues mutated to Npu-native CFN (protein)
# chain: MKRTADGSEFESPKKKRKVIKIATRKYLGKQNVYDIGVERDHNFALKNGFIASNCFNEIGKATAKYFFYSNIMNFFKTEITLANGEIRKRPLIETNGETGEIVWDKGRDFATVRKVLSMPQVNIVKKTEVQTGGFSKESILPKRNSDKLIARKKDWDPKKYGGFDSPTVAYSVLVVAKVEKGKSKKLKSVKELLGITIMERSSFEKNPIDFLEAKGYKEVKKDLIIKLPKYSLFELENGRKRMLASAGELQKGNELALPSKYVNFLYLASHYEKLKGSPEDNEQKQLFVEQHKHYLDEIIEQISEFSKRVILADANLDKVLSAYNKHRDKPIREQAENIIHLFTLTNLGAPAAFKYFDTTIDRKRYTSTKEVLDATLIHQSITGLYETRIDLSQLGGDSGGSSGGSSGSETPGTSESATPESSGGSSGGSSTLNIEDEYRLHETSKEPDVSLGSTWLSDFPQAWAETGGMGLAVRQAPLIIPLKATSTPVSIKQYPMSQEARLGIKPHIQRLLDQGILVPCQSPWNTPLLPVKKPGTNDYRPVQDLREVNKRVEDIHPTVPNPYNLLSGLPPSHQWYTVLDLKDAFFCLRLHPTSQPLFAFEWRDPEMGISGQLTWTRLPQGFKNSPTLFNEALHRDLADFRIQHPDLILLQYVDDLLLAATSELDCQQGTRALLQTLGNLGYRASAKKAQICQKQVKYLGYLLKEGQRWLTEARKETVMGQPTPKTPRQLREFLGKAGFCRLFIPGFAEMAAPLYPLTKPGTLFNWGPDQQKAYQEIKQALLTAPALGLPDLTKPFELFVDEKQGYAKGVLTQKLGPWRRPVAYLSKKLDPVAAGWPPCLRMVAAIAVLTKDAGKLTMGQPLVILAPHAVEALVKQPPDRWLSNARMTHYQALLLDTDRVQFGPVVALNPATLLPLPEEGLQHNCLDILAEAHGTRPDLTDQPLPDADHTWYTDGSSLLQEGQRKAGAAVTTETEVIWAKALPAGTSAQRAELIALTQALKMAEGKKLNVYTDSRYAFATAHIHGEIYRRRGWLTSEGKEIKNKDEILALLKALFLPKRLSIIHCPGHQKGHSAEARGNRMADQAARKAAITETPDTSTLLIENSSPSGGSKRTADGSEFEPKKKRK
# Experiments:
# DNA = settings: mutation relative to canonical SpCas9, SEQ ID NO: 18; cited from earlier work
# HEK cells = experiment: Npu intein-split prime editors, plasmid transfection of HEK cells, high-throughput sequencing; assay type: cell-based; settings: plasmids, split site 1023/1024
# Text: This Example is focused on a PE fusion protein comprising the canonical SpCas9 (SEQ ID NO: 18). The split sites for other Cas9 proteins may be the corresponding same site, or may need to be optimized for each different Cas9 protein. In the instant Example, the prime editor was split between residues 1023 and 1024 of SpCas9 (SEQ ID NO: 18). This is referred to as the “1023/1024” split site.
# Prime editors (PEs) exceed the AAV packaging capacity.
# It was therefore determined whether mutation from the Cas9-native “SEQ” towards the Npu intein “CFN” sequence altered efficiency of prime editing.
Molecule,decreased DNA cleavage (DNA),prime editing activity compared with full-length PE3 (HEK cells)
B1,About 50% decreased DNA cleavage,
B2,,recapitulates full-length PE3 activity
